B1: human PON1-192R (protein)
chain: AKLIALTLLGMGLALFRNHQSSYQTRLNALREVQPVELPNCNLVKGIETGSEDLEILPNGLAFISSGLKYPGIKSFNPNSPGKILLMDLNEEDPTVLELGITGSKFDVSSFNPHGISTFTDEDNAMYLLVVNHPDAKSTVELFKFQEEEKSLLHLKTIRHKLLPNLNDIVAVGPEHFYGTNDHYFLDPYLRSWEMYLGLAWSYVVYYSPSEVRVVAEGFDFANGINISPDGKYVYIAELLAHKIHVYEKHANWTLTPLKSLDFNTLVDNISVDPETGDLWVGCHPNGMKIFFYDSENPPASEVLRIQNILTEEPKVTQVYAENGTVLQGSTVASVYKGKLLIGTVFHKALYCEL
B2: human PON1-192Q (protein)
chain: AKLIALTLLGMGLALFRNHQSSYQTRLNALREVQPVELPNCNLVKGIETGSEDLEILPNGLAFISSGLKYPGIKSFNPNSPGKILLMDLNEEDPTVLELGITGSKFDVSSFNPHGISTFTDEDNAMYLLVVNHPDAKSTVELFKFQEEEKSLLHLKTIRHKLLPNLNDIVAVGPEHFYGTNDHYFLDPYLQSWEMYLGLAWSYVVYYSPSEVRVVAEGFDFANGINISPDGKYVYIAELLAHKIHVYEKHANWTLTPLKSLDFNTLVDNISVDPETGDLWVGCHPNGMKIFFYDSENPPASEVLRIQNILTEEPKVTQVYAENGTVLQGSTVASVYKGKLLIGTVFHKALYCEL
B3: wt rePON1-192K (protein)
chain: MAKLTALTLLGLGLALFDGQKSSFQTRFNVHREVTPVELPNCNLVKGVDNGSEDLEILPNGLAFISSGLKYPGIMSFDPDKSGKILLMDLNEEDPVVLELGITGNTLDISSFNPHGISTFTDEDNTVYLLVVNHPDSSSTVEVFKFQEEEKSLLHLKTIRHKLLPSVNDIVAVGPEHFYATNDHYFADPYLKSWEMHLGLAWSFVTYYSPNDVRVVAEGFDFANGINISPDGKYVYIAELLAHKIHVYEKHANWTLTPLKSLDFDTLVDNISVDPVTGDLWVGCHPNGMRIFYYDPKNPPGSEVLRIQDILSEEPKVTVVYAENGTVLQGSTVAAVYKGKLLIGTVFHKALYCEL
B4: rePON1-192R (protein)
chain: MAKLTALTLLGLGLALFDGQKSSFQTRFNVHREVTPVELPNCNLVKGVDNGSEDLEILPNGLAFISSGLKYPGIMSFDPDKSGKILLMDLNEEDPVVLELGITGNTLDISSFNPHGISTFTDEDNTVYLLVVNHPDSSSTVEVFKFQEEEKSLLHLKTIRHKLLPSVNDIVAVGPEHFYATNDHYFADPYLRSWEMHLGLAWSFVTYYSPNDVRVVAEGFDFANGINISPDGKYVYIAELLAHKIHVYEKHANWTLTPLKSLDFDTLVDNISVDPVTGDLWVGCHPNGMRIFYYDPKNPPGSEVLRIQDILSEEPKVTVVYAENGTVLQGSTVAAVYKGKLLIGTVFHKALYCEL
B5: rePON1-192Q (protein)
chain: MAKLTALTLLGLGLALFDGQKSSFQTRFNVHREVTPVELPNCNLVKGVDNGSEDLEILPNGLAFISSGLKYPGIMSFDPDKSGKILLMDLNEEDPVVLELGITGNTLDISSFNPHGISTFTDEDNTVYLLVVNHPDSSSTVEVFKFQEEEKSLLHLKTIRHKLLPSVNDIVAVGPEHFYATNDHYFADPYLQSWEMHLGLAWSFVTYYSPNDVRVVAEGFDFANGINISPDGKYVYIAELLAHKIHVYEKHANWTLTPLKSLDFDTLVDNISVDPVTGDLWVGCHPNGMRIFYYDPKNPPGSEVLRIQDILSEEPKVTVVYAENGTVLQGSTVAAVYKGKLLIGTVFHKALYCEL

Target: rHDL-apoA-I (reconstituted discoidal HDL particles carrying apolipoprotein A-I)

| Protein | A2 (%), amplitude of the slow phase of inactivation on apoA-I rHDL | activation level of lactonase activity by rHDL-apoA-I, against 192Q | stated: enzymatic activity stimulated by a 50-fold molar excess of rHDl-apoA-I (% Activity Stimulation, delipidated enzyme as reference), six substrates [panel B] | Kapp (µM), substrate TBBL | Kapp (µM), substrate paraoxon | Kapp (µM), substrate phenyl acetate | Kapp (µM), substrate γ-dodecanoic lactone | Kapp (µM), substrate δ-nonanoic lactone | Kapp (µM), substrate δ-valerolactone | Vmax (%), enzymatic activation by apoA-I rHDL, substrate TBBL | Vmax (%), enzymatic activation by apoA-I rHDL, substrate paraoxon | Vmax (%), enzymatic activation by apoA-I rHDL, substrate phenyl acetate | Vmax (%), enzymatic activation by apoA-I rHDL, substrate γ-dodecanoic lactone | Vmax (%), enzymatic activation by apoA-I rHDL, substrate δ-nonanoic lactone | Vmax (%), enzymatic activation by apoA-I rHDL, substrate δ-valerolactone | fold higher fraction of HDL-bound protein than the Q isozyme (from inactivation/stability measurements; reference rePON1-192Q) | reduction of Vmax of stimulation by rHDL compared to wt rePON1-192K |
| --- | --- | --- | --- | --- | --- | --- | --- | --- | --- | --- | --- | --- | --- | --- | --- | --- | --- |
| B1 | 87% | about 2-fold higher activation level than 192Q | dark bars: about 650 to 750 % with γ-dodecanoic lactone, δ-valerolactone and δ-nonanoic lactone, about 450 % with TBBL, about 200 to 250 % with phenyl acetate and paraoxon; higher than the 192Q bar with every lactone |  |  |  |  |  |  |  |  |  |  |  |  |  |  |
| B2 | 72% |  | white bars: about 280 % with γ-dodecanoic lactone, about 420 to 440 % with δ-valerolactone and δ-nonanoic lactone, about 250 % with TBBL, about 170 to 210 % with phenyl acetate and paraoxon; lower than the 192R bar with every lactone, close to it with phenyl acetate and paraoxon |  |  |  |  |  |  |  |  |  |  |  |  |  |  |
| B3 | 100% |  |  | 0.5 µM | 0.6 µM | 0.5 µM | 1.2 µM | 1.3 µM | 1.3 µM | 791% | 222% | 425% | 1830% | 1580% | 1720% | a 3-fold higher fraction of HDL-bound protein as revealed from the stability measurements |  |
| B4 | 90% |  |  | 0.4 µM | 0.8 µM | 0.8 µM | 0.9 µM | 1.5 µM | 1.1 µM | 579% | 200% | 336% | 1260% | 1350% | 1400% | a 3-fold higher fraction of HDL-bound protein as revealed from the stability measurements | 10-30% reduction of Vmax |
| B5 | 70% |  |  | 0.5 µM | 0.8 µM | 0.8 µM | 0.6 µM | 0.6 µM | 1.1 µM | 340% | 128% | 165% | 382% | 778% | 481% |  | 50-80% reduction of Vmax compared to wt rePON1-192K |
